Data taken from US20180230233A1 (Genentech, published 2018).

target: T1, recombinant His-tagged human tryptase beta 1 monomer (human, UniProt Q15661 31-275); assay: SPR (BIAcore T200); IgG1 captured by anti-human Fc, His-tagged monomer injected
T1 construct: also called His6-tagged tryptase monomer; human tryptase b1 monomer
Protocol: The assay can use a BIAcore® T200 or an equivalent device. Briefly, BIAcore® Series S CM5 sensor chips (or equivalent sensor chips) are immobilized with monoclonal mouse anti-human IgG (Fc) antibody and anti-tryptase antibodies are subsequently captured on the flow cell. Serial 3-fold dilutions of the human tryptase beta 1 monomer are injected at a flow rate of 30 μl/min. Each sample is analyzed with 3 min association and 10 min dissociation. The assay is performed at 25° C. After each injection, the chip is regenerated using 3 M MgCl₂. Binding response is corrected by subtracting the response units (RU) from a flow cell capturing an irrelevant IgG at similar density. A 1:1 Languir model of simultaneous fitting of kₒₙ and koff is used for kinetics analysis.
In this experiment, all the humanized variants were expressed as IgG by transient transfection of 293 cells. IgG was purified with protein G affinity chromatography. The affinity of each variant for recombinant His-tagged human tryptase beta 1 monomer (SEQ ID NO: 128) was determined by SPR analysis using a BIAcore® T200. BIAcore® Series S CM5 sensor chips were immobilized with monoclonal mouse anti-human IgG (Fc) antibody (Human antibody capture kit from GE Healthcare) and anti-tryptase variants were subsequently captured on each flow cell. Serial 3-fold dilutions of the human tryptase beta 1 monomer were injected at a flow rate of 30 μl/min. Each sample was analyzed with 3 min association and 10 min dissociation. After each injection, the chip was regenerated using 3 M MgCl₂. Binding response was corrected by subtracting the response units (RU) from a flow cell capturing an irrelevant IgG at similar density. A 1:1 Languir model of simultaneous fitting of kₒₙ and koff was used for kinetics analysis.

T1 sequence (Q15661 other isoform, or with tags, fused parts or gaps): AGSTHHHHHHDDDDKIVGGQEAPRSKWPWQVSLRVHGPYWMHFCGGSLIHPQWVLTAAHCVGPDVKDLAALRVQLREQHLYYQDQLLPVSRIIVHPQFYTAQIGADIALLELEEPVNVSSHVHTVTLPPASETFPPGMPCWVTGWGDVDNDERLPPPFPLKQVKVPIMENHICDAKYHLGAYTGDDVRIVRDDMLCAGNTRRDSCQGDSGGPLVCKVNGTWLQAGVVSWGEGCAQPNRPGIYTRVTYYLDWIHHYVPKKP

| Binder | Kd |
| --- | --- |
| hu31A.v14 IgG1 (antibody, V domains shown) VH: EVQLVESGGGLVQPGGSLRLSCAASGFTFSDYGMVWVRQAPGKGLEWVAFISSGSSTVYYADTMKGRFTISRDNSKNTLYLQMNSLRAEDTAVVYCTRRDNYDWYFDVWGQGTLVTVSS VL: DIQMTQSPSSLSASVGDRVTITCSASSSVTYMYWYQQKPGKSPKPWIYRTSDLASGVPSRFSGSGSGTDFTLTISSLQPEDFATYYCQHYHSYPLTFGQGTKVEIK | 1.34 nM |
| hu31A.v3 IgG1 (antibody, V domains shown, also called v3 (of hu31A)) VH: EVQLVESGGGLVQPGGSLRLSCAASGFTFSDYGMVWVRQAPGKGLEWVGFISSGSSTVYYADTMKGRFTISRDNSKNTLYLQMNSLRAEDTAVVYCARRDNYDWYFDVWGQGTLVTVSS VL: DIQLTQSPSSLSASVGDRVTITCSASSSVTYMYWYQQKPGKSPKPWIYRTSDLASGVPSRFSGSGSGTDYTLTISSLQPEDFATYYCQHYHSYPLTFGQGTKVEIK | 0.79 nM |
| hu31A.v1 IgG1 (antibody, V domains shown, also called v1 (of hu31A)) VH: EVQLVESGGGLVQPGGSLRLSCAASGFTFSDYGMVWVRQAPGKGLEWVGFISSGSSTVYYADTMKGRFTISRDNSKNTLYLQMNSLRAEDTAVVYCARRDNYDWYFDVWGQGTLVTVSS VL: DIQMTQSPSSLSASVGDRVTITCSASSSVTYMYWYQQKPGKAPKLLIYRTSDLASGVPSRFSGSGSGTDFTLTISSLQPEDFATYYCQHYHSYPLTFGQGTKVEIK | 4.04 nM |
| hu31A.v2 IgG1 (antibody, V domains shown, also called v2 (of hu31A)) VH: EVQLVESGGGLVQPGGSLRLSCAASGFTFSDYGMVWVRQAPGKGLEWVGFISSGSSTVYYADTMKGRFTISRDNSKNTLYLQMNSLRAEDTAVVYCARRDNYDWYFDVWGQGTLVTVSS VL: DIQMTQSPSSLSASVGDRVTITCSASSSVTYMYWYQQKPGKSPKPWIYRTSDLASGVPSRFSGSGSGTDFTLTISSLQPEDFATYYCQHYHSYPLTFGQGTKVEIK | 0.74 nM |

Next, values leading:

| Kd | Binder |
| --- | --- |
| 2.06 nM | hu31A.v7 IgG1 (antibody, V domains shown, also called v7 (of hu31A)) VH: EVQLVESGGGLVQPGGSLRLSCAASGFTFSSFGMHWVRQAPGKGLEWVAFISSGSSTVYYADTMKGRFTISRDNSKNTLYLQMNSLRAEDTAVVYCARRDNYDWYFDVWGQGTLVTVSS VL: DIQMTQSPSSLSASVGDRVTITCSASSSVTYMYWYQQKPGKAPKLLIYRTSDLASGVPSRFSGSGSGTDFTLTISSLQPEDFATYYCQHYHSYPLTFGQGTKVEIK |
| 1.65 nM | hu31A.v6 IgG1 (antibody, V domains shown, also called v6 (of hu31A)) VH: EVQLVESGGGLVQPGGSLRLSCAASGFTFSDYGMVWVRQAPGKGLEWVAFISSGSSTVYYADTMKGRFTISRDNSKNTLYLQMNSLRAEDTAVVYCARRDNYDWYFDVWGQGTLVTVSS VL: DIQLTQSPSSLSASVGDRVTITCSASSSVTYMYWYQQKPGKSPKPWIYRTSDLASGVPSRFSGSGSGTDYTLTISSLQPEDFATYYCQHYHSYPLTFGQGTKVEIK |
| 1.68 nM | hu31A.v5 IgG1 (antibody, V domains shown, also called v5 (of hu31A)) VH: EVQLVESGGGLVQPGGSLRLSCAASGFTFSDYGMVWVRQAPGKGLEWVAFISSGSSTVYYADTMKGRFTISRDNSKNTLYLQMNSLRAEDTAVVYCARRDNYDWYFDVWGQGTLVTVSS VL: DIQMTQSPSSLSASVGDRVTITCSASSSVTYMYWYQQKPGKSPKPWIYRTSDLASGVPSRFSGSGSGTDFTLTISSLQPEDFATYYCQHYHSYPLTFGQGTKVEIK |
| 11.8 nM | hu31A.v4 IgG1 (antibody, V domains shown, also called v4 (of hu31A)) VH: EVQLVESGGGLVQPGGSLRLSCAASGFTFSDYGMVWVRQAPGKGLEWVAFISSGSSTVYYADTMKGRFTISRDNSKNTLYLQMNSLRAEDTAVVYCARRDNYDWYFDVWGQGTLVTVSS VL: DIQMTQSPSSLSASVGDRVTITCSASSSVTYMYWYQQKPGKAPKLLIYRTSDLASGVPSRFSGSGSGTDFTLTISSLQPEDFATYYCQHYHSYPLTFGQGTKVEIK |
| 0.94 nM | hu31A.v8 IgG1 (antibody, V domains shown, also called v8 (of hu31A)) VH: EVQLVESGGGLVQPGGSLRLSCAASGFTFSSFGMHWVRQAPGKGLEWVAFISSGSSTVYYADTMKGRFTISRDNSKNTLYLQMNSLRAEDTAVVYCARRDNYDWYFDVWGQGTLVTVSS VL: DIQMTQSPSSLSASVGDRVTITCSASSSVTYMYWYQQKPGKSPKPWIYRTSDLASGVPSRFSGSGSGTDFTLTISSLQPEDFATYYCQHYHSYPLTFGQGTKVEIK |
